According to US6835814 (Eli Lilly, dated 2004):

T1: FLINT (FAS Ligand Inhibitory Protein), mature human FLINT (human, UniProt O95407 30-300)
T1 construct: also called mature FLINT
T1 sequence: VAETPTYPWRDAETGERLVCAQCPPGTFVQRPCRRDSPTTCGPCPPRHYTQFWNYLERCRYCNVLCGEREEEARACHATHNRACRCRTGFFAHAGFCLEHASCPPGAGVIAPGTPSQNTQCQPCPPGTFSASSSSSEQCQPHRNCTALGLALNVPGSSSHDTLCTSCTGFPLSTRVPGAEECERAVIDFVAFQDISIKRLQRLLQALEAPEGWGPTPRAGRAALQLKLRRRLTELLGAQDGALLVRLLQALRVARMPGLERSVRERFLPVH

B1: Fas/Fc chimera (R&D Systems) (Fc fusion, UniProt P25445 26-173, looked up)
chain: QVTDINSKGLELRKTVTTVETQNLEGLHHDGQFCHKPCPPGERKARDCTVNGDEPDCVPCQEGKEYTDKAHFSSKCRRCRLCDEGHGLEVEINCTRTQNTKCRCKPNFFCNSTVCEHCDPCTKCEHGIIKECTLTSNTKCKEEGSRSN
notes: The result line prints only 'Fas'; also called Pas/Fc chimera; Fc part of the bought chimera not given; not described
B2: FasLigand (monomer) (ligand, UniProt P48023 103-281, looked up)
chain: QLFHLQKELAELRESTSQMHTASSLEKQIGHPSPPPEKKELRKVAHLTGKSNSRSMPLEWEDTYGIVLLSGVKYKKGGLVINETGLYFVYSKVYFRGQSCNNLPLSHKVYMRNSKYPQDLVMMEGKMMSYCTTGQMWARSSYLGAVFNLTSADHLYVNVSELSLVNFEESQTFFGLYKL
notes: Immobilized on a CM5 chip by amine coupling and printed as 'FasLigand (monomer)'; also called Fas Ligand (Kamiya Biomedical Company)

What was measured:
[1] = target: B2; experiment: SPR (Biacore 2000), FasLigand immobilized on CM5 chip, Fas in solution
Experimental: (§1) FasL or the FLINT analog are immobilized through their primary amine group on lysine residues onto carboxymethyldextran polymer attached to a gold surface (Sensor Chip CM5). Immobilization is carried out using the amine coupling kit (Biacore) according to the manufacturer's protocol. Briefly, 100 µl of either FasL or FLINT analog solutions (10–25 µg/ml in sodium acetate buffer 20 mM, pH 5.0) is loaded onto an activated CM5 chip. After coupling, excess reactive groups on the surface are deactivated with 1M ethanolamine hydrochloride pH 8.5. The chip is then washed with a sodium acetate buffer 20 mM, pH 5.0 to remove non-covalently bound material.
(§2) To analyze the interaction between FasL and FLINT analogs, solutions containing the FLINT analogs are passed over the chip with PasL immobilized thereon. The amount of the FLINT analog associated with FasL is determined by measuring the surface plasmon resonance signal (in responce units, RU). Typically, FLINT analog solutions at different concentrations in HBS-ET buffer are loaded on the sensor chip for 10 minutes at a flow rate of 5 µl/min. […]
(§3) The data is evaluated and binding parameters determined using BIA evaluation 3.0.2 software (Biacore). The Kd for the interaction between FLINT and FasL and between FasL and Fas was determined using the protocols described above.

[2] = target: T1, FLINT (FAS Ligand Inhibitory Protein), …; experiment: SPR (Biacore 2000), FasLigand immobilized on CM5 chip, FLINT in solution
Experimental: as §1, §2, §3

| Binder | Kd [1] [nM] | Kd [2] [nM] |
| --- | --- | --- |
| B1 | 162 |  |
| B2 |  | 113 |
